Values after ≈ are worked out from the molar mass of the structure shown. Like-named read-outs stand apart in the source and are kept apart here.
How the values were obtained:
[1] = system: mouse L1210 leukemia; assay: antitumor activity against mouse L1210 leukemia, life prolongation rate; type: in vivo; details: once a day for five days starting 24 hours after tumor cell injection, control survival day = 100%
Method: (§1) These HB-6 substances were tested for their antitumor activity in terms of mouse L1210 leukemia. L1210 leukemia cells (1×10^5) were abdominally injected to each mouse, and the test sample was administered once a day for consecutive five days, with the first administration being started 24 hours after injection of the tumor cells. The result is summarized in Table 1, in which the antitumor activity of each drug is expressed as life prolongation rate, taking the survival day for the control group as 100%.
as §1, with “HBW-6” for “HB-6”, “2,” for “1,”

[2] = system: Bacillus subtilis ATCC6633; assay: antibacterial activity, MIC, Bacillus subtilis ATCC6633; type: cell-based
[3] = system: Micrococcus luteus ATCC9341; assay: antibacterial activity, MIC, Micrococcus luteus ATCC9341; type: cell-based
[4] = system: Pseudomonas aeruginosa ATCC10145; assay: antibacterial activity, MIC, Pseudomonas aeruginosa ATCC10145; type: cell-based
[5] = Solubility; type: physicochemical; details: water and organic solvents
[6] = Isoelectric point; type: physicochemical

## COc1cccc2c1C(=O)c1c(O)c3c(c(O)c1C2=O)C[C@@](O)(C(=O)CO)C[C@@H]3O[C@H]1C[C@H](N)[C@H](O)[C@H](C)O1 [Adriamycin, adriamycin, reference compound]
[1]; dose 2 mg/Kg
  Life Prolongation Rate: 150%

## CC[C@@]1(O)C[C@H](O[C@H]2C[C@H](N(C)C)[C@H](O[C@H]3C[C@H](O)[C@H](O[C@H]4CCC(=O)[C@H](C)O4)[C@H](C)O3)[C@H](C)O2)c2c(cc3c(c2O)C(=O)c2c(O)cccc2C3=O)[C@H]1C(=O)OC [Aclacinomycin A, aclacinomycin A, reference compound]
[1]; dose 2 mg/Kg
  Life Prolongation Rate: 135%

## COc1cccc2c1C(=O)c1c(O)c3c(c(O)c1C2=O)C[C@@](O)(C(C)=O)C[C@@H]3O[C@H]1C[C@H](N)[C@H](O)[C@H](C)O1 [Daunomycin, daunomycin, reference compound]
[1]; dose 2 mg/Kg
  Life Prolongation Rate: 145%
[2]; read-out: MIC
  MIC: 5.8 µg/mL (≈ 11 µM)
[3]; read-out: MIC
  MIC: 1.2 µg/mL (≈ 2.27 µM)
[4]; read-out: MIC
  MIC: > 10 µg/mL

B1: HB-10(A): NCS-apoprotein and daunomycin combined at molar ratio 1:1 (conjugate, UniProt P0A3R9 35-147, looked up)
Neocarzinostatin: AAPTATVTPSSGLSDGTVVKVAGAGLQAGTAYDVGQCAWVDTGVLACNPADFSSVTADANGSASTSLTVRRSFEGFLFDGTRWGTVDCTTAACQVGLSDAAGNGPEGVAISFN
modifications: complex with daunomycin, 1:1
[1]; dose 2 mg/Kg
  Life Prolongation Rate: 250%

B2: HB-10(C): NCS-apoprotein and daunomycin combined at molar ratio 2:1 (conjugate, UniProt P0A3R9 35-147, looked up)
Neocarzinostatin: B1 Neocarzinostatin
modifications: daunomycin conjugate, 2:1
[1]; dose 2 mg/Kg
  Life Prolongation Rate: 230%

B3: HB-21(A): NCS-apoprotein and aclacinomycin A bound together, molar ratio 1:1 (conjugate, UniProt P0A3R9 35-147, looked up)
Neocarzinostatin: B1 Neocarzinostatin
modifications: complex with aclacinomycin A, 1:1
[1]; dose 2 mg/Kg
  Life Prolongation Rate: 142%

B4: HBW-10(A): NCS-apoprotein and daunomycin bound through hydrogen bond and/or hydrophobic bond, molar ratio 1:1 (conjugate, UniProt P0A3R9 35-147, looked up)
Neocarzinostatin: B1 Neocarzinostatin
modifications: noncovalent complex with daunomycin, 1:1
[1]; dose 1 mg/Kg
  Life Prolongation Rate: 260%
[2]
  MIC: 2.3 µg/mL
[3]
  MIC: 0.30 µg/mL
[4]
  MIC: > 10 µg/mL

B5: HB-10(D): NCS-apoprotein and daunomycin combined at molar ratio 4:1 (conjugate, UniProt P0A3R9 35-147, looked up)
Neocarzinostatin: B1 Neocarzinostatin
modifications: complex with daunomycin, 4:1
[1]; dose 2 mg/Kg
  Life Prolongation Rate: 200%

B6: HB-10(B): NCS-apoprotein and daunomycin combined at molar ratio 1:10 (conjugate, UniProt P0A3R9 35-147, looked up)
Neocarzinostatin: B1 Neocarzinostatin
modifications: daunomycin conjugate, 1:10
[1]; dose 2 mg/Kg
  Life Prolongation Rate: 265%

B7: HBW-10(B): NCS-apoprotein and daunomycin bound through hydrogen bond and/or hydrophobic bond, molar ratio 1:5 (conjugate, UniProt P0A3R9 35-147, looked up)
Neocarzinostatin: B1 Neocarzinostatin
modifications: noncovalent complex with daunomycin, 1:5
[1]; dose 1 mg/Kg
  Life Prolongation Rate: 270%

B8: HBW-22(A): NCS-apoprotein and γ-rhodomycin Y bound together, molar ratio 1:1 (conjugate, UniProt P0A3R9 35-147, looked up)
Neocarzinostatin: B1 Neocarzinostatin
modifications: γ-rhodomycin Y conjugate, 1:1
[1]; dose 1 mg/Kg
  Life Prolongation Rate: 158%

B9: HBW-21(B): NCS-apoprotein and aclacinomycin A bound together, molar ratio 1:5 (conjugate, UniProt P0A3R9 35-147, looked up)
Neocarzinostatin: B1 Neocarzinostatin
modifications: complex with aclacinomycin A, 1:5
[1]; dose 1 mg/Kg
  Life Prolongation Rate: 162%

B10: HBW-21(A): NCS-apoprotein and aclacinomycin A bound together, molar ratio 1:1 (conjugate, UniProt P0A3R9 35-147, looked up)
Neocarzinostatin: B1 Neocarzinostatin
modifications: aclacinomycin A conjugate, 1:1
[1]; dose 1 mg/Kg
  Life Prolongation Rate: 135%

B11: HB-18(A): NCS-apoprotein and cosmomycin A bound together, molar ratio 1:1 (conjugate, UniProt P0A3R9 35-147, looked up)
Neocarzinostatin: B1 Neocarzinostatin
modifications: cosmomycin A conjugate, 1:1
[1]; dose 2 mg/Kg
  Life Prolongation Rate: 168%

B12: NCS-apoprotein: methanol-insoluble fraction (protein moiety) of neocarzinostatin (protein, UniProt P0A3R9 35-147, looked up)
Neocarzinostatin: B1 Neocarzinostatin
[1]; dose 2 mg/Kg
  Life Prolongation Rate: 101%
[2]
  MIC: > 100 µg/mL
[3]
  MIC: > 100 µg/mL
[4]
  MIC: > 100 µg/mL
[5]
  Solubility: Soluble in water; insoluble in methanol, ethanol, acetone, butanol and propanol
[6]
  Isoelectric point: 3.2 pH

B13: HBW-20(B): NCS-apoprotein and adriamycin bound together, molar ratio 1:5 (conjugate, UniProt P0A3R9 35-147, looked up)
Neocarzinostatin: B1 Neocarzinostatin
modifications: adriamycin conjugate, 1:5
[1]; dose 1 mg/Kg
  Life Prolongation Rate: 245%

B14: HBW-22(B): NCS-apoprotein and γ-rhodomycin Y bound together, molar ratio 1:5 (conjugate, UniProt P0A3R9 35-147, looked up)
Neocarzinostatin: B1 Neocarzinostatin
modifications: complex with gamma-rhodomycin Y, 1:5
[1]; dose 1 mg/Kg
  Life Prolongation Rate: 162%

B15: HB-21(B): NCS-apoprotein and aclacinomycin A bound together, molar ratio 1:5 (conjugate, UniProt P0A3R9 35-147, looked up)
Neocarzinostatin: B1 Neocarzinostatin
modifications: aclacinomycin A conjugate, 1:5
[1]; dose 2 mg/Kg
  Life Prolongation Rate: 145%

B16: HB-18(B): NCS-apoprotein and cosmomycin A bound together, molar ratio 1:5 (conjugate, UniProt P0A3R9 35-147, looked up)
Neocarzinostatin: B1 Neocarzinostatin
modifications: cosmomycin A conjugate, 1:5
[1]; dose 2 mg/Kg
  Life Prolongation Rate: 170%

B17: HB-20(B): NCS-apoprotein and adriamycin bound together, molar ratio 1:5 (conjugate, UniProt P0A3R9 35-147, looked up)
Neocarzinostatin: B1 Neocarzinostatin
modifications: complex with adriamycin, 1:5
[1]; dose 2 mg/Kg
  Life Prolongation Rate: 205%

B18: HB-22(B): NCS-apoprotein and γ-rhodomycin Y bound together, molar ratio 1:5 (conjugate, UniProt P0A3R9 35-147, looked up)
Neocarzinostatin: B1 Neocarzinostatin
modifications: γ-rhodomycin Y conjugate, 1:5
[1]; dose 1 mg/Kg
  Life Prolongation Rate: 150%

B19: HBW-18(A): NCS-apoprotein and cosmomycin A bound together, molar ratio 1:1 (conjugate, UniProt P0A3R9 35-147, looked up)
Neocarzinostatin: B1 Neocarzinostatin
modifications: complex with cosmomycin A, 1:1
[1]; dose 1 mg/Kg
  Life Prolongation Rate: 170%

B20: HBW-18(B): NCS-apoprotein and cosmomycin A bound together, molar ratio 1:5 (conjugate, UniProt P0A3R9 35-147, looked up)
Neocarzinostatin: B1 Neocarzinostatin
modifications: complex with cosmomycin A, 1:5
[1]; dose 1 mg/Kg
  Life Prolongation Rate: 175%

B21: HB-22(A): NCS-apoprotein and γ-rhodomycin Y bound together, molar ratio 1:1 (conjugate, UniProt P0A3R9 35-147, looked up)
Neocarzinostatin: B1 Neocarzinostatin
modifications: complex with gamma-rhodomycin Y, 1:1
[1]; dose 1 mg/Kg
  Life Prolongation Rate: 145%

B22: HB-20(A): NCS-apoprotein and adriamycin bound together, molar ratio 1:1 (conjugate, UniProt P0A3R9 35-147, looked up)
Neocarzinostatin: B1 Neocarzinostatin
modifications: complex with adriamycin, 1:1
[1]; dose 2 mg/Kg
  Life Prolongation Rate: 200%

B23: HBW-20(A): NCS-apoprotein and adriamycin bound together, molar ratio 1:1 (conjugate, UniProt P0A3R9 35-147, looked up)
Neocarzinostatin: B1 Neocarzinostatin
modifications: noncovalent complex with adriamycin, 1:1
[1]; dose 1 mg/Kg
  Life Prolongation Rate: 268%
